# Source: the RNAGym collection of RNA variant scans (doi:10.1073/pnas.2313332121)
# Fewer inactive variants are shown than the library holds.
# B1: TPR 5TU (parent)
# chain: GGAUCUUCUCGAUCUAACAAAAAAGACAAAUCUGCCACAAAGCUUGAGAGCAUCUUCGGAUGCAGAGGCGGCAGCCUUCGGUGGCGCGAUAGCGCCAACGUUCUCAACUAUGACACGCAAAACGCGUGCUCCGUUGAAUGGAGUUUAUCAUG
# Variants of: B1
# Test: polymerase ribozyme fitness, log enrichment relative to wild type (log ratio); higher = more active; in vitro selection for triplet polymerase activity
# Summary of the method: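 Input and output libraries were sequenced on Illumina after a single in vitro selection round, run in triplicate on PCR-built, transcribed mutant libraries of each subunit of a heterodimeric triplet polymerase ribozyme. Selection annealed libraries to a biotinylated primer, the partner subunit and triplets, incubated them frozen at −7 °C, then gel-excised extended constructs for streptavidin-bead capture and RT-PCR. Genotypes with ≥10 input reads and ≥1 read per output were kept. Fitness is the logarithm, taken in base 2, of genotype enrichment divided by wild-type enrichment, using inverse-variance-weighted replicate averages.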
row,Variant,polymerase ribozyme fitness (log ratio)
1,A113U G124U,-2.07
2,A113U G124C,-3.17
3,A122U U146C,-0.714
4,A138U A147U,-3.38
5,A137U U148G,≤ -4.2
6,A122G A138G C149U,-4
7,C114U U148G,-3.06
8,A115U U148G,-4.15
9,A122G U127A G128A,-4.01
10,G133A G141U,-3.08
11,A107U A115G,-4.16
12,G126C,1.28
13,G126U,0.31
14,G126A,0.682
15,G140U A147U,-2.9
16,G117U A137G,-1.34
17,A120U U145C,-0.0409
18,C131G G133C G136U G141U,-3.43
19,C114G A119G,-2.84
20,G117A C123A A150G,-1.18
21,A115C A142G A150U,-3.13
22,G124A U148G,-3.69
23,G124A U148C,-0.766
24,C114A U139G,-2.32

row,Variant,polymerase ribozyme fitness (log ratio)
1,C116U U134C,-0.00566
2,A119C U139C,-3.46
3,C129A G143A A150G,-3.66
4,U127G G136A,-2.89
5,A107G C118U U145A,≤ -4.2
6,A113G U148A,-4.05
7,C116U C118A U139G,0.554
8,A115G C116A U127G,≤ -4.2
9,C116U A121U G124U,-2.02
10,A106C G152U,-2.57
11,C105G U134C G140U,-4.18
12,G141A U144C,-3.08
13,A122U U135C A137G,-3.91
14,C123U A142U,-1.13
15,C114U G136C,-3.39
16,A137U G143U,-3.39
17,G117U G143U,-2.57
18,G124C C132A,-2.4
19,C118G U144A,-0.0459
20,G124C G140C,-4.05
21,G126A G143A,-1.92
22,C116A,1.34
23,C116G,0.655
24,C116U,0.103

row,Variant,polymerase ribozyme fitness (log ratio)
1,C118G G141A,-0.0985
2,A110G A122G,-2.84
3,A122G U144G,0.851
4,A120G G141C A147U,-1.01
5,A120U A121U U144G C149G,-3.46
6,A107U A120G C132A A147C,≤ -4.2
7,C132G,-3.15
8,C132U,-0.687
9,C132A,-2.06
10,A113G U134A,≤ -4.2
11,U139A G143U U146G,-3.74
12,A137G U144A,-3.01
13,A115C U127C,-1.1
14,C114U A119U,-1.73
15,A137C,-3.09
16,A137U,-3.39
17,A137G,-1.15
18,C129G U134G,-3.81
19,G141A C149G,-4.13
20,G126A C132U A142C,≤ -4.2
21,U139G U148A,-2.73
22,G140A G143U,≤ -4.2
23,G117C A120G,0.308
24,A119C,-0.385

row,Variant,polymerase ribozyme fitness (log ratio)
1,A119U,-0.546
2,A119G,-0.045
3,A137U G141A,-3.24
4,A137U G141U,-3.93
5,G128U A137U,-3.34
6,C125U A147U,-1.83
7,C105G A138G,-3.88
8,C132U C149G,-3.84
9,C108A G124U G140C,≤ -4.2
10,G126C A150G,-2.81
11,A122C C149U,-1.16
12,G126U G152U,-2.47
13,C125U G126A,-3.14
14,A115G G124A A150G,-4
15,C118A A119U,-0.617
16,C114U C123U,-2.17
17,A120G G128U,-2.36
18,G128U U144C,-3.96
19,G136C U151G,≤ -4.2
20,U127G G141A,-3.27
21,C118U U145A,-0.179
22,A120G A137C,-4.08
23,A106C C116G,-0.324
24,C116U U146C,-0.11

row,Variant,polymerase ribozyme fitness (log ratio)
1,A115C G133U,-3.74
2,G128A G141A G143U U144G U151A,≤ -4.2
3,C116U A122U,-0.326
4,A110C G112A G140C A142U,-4.12
5,G124A G140C,-3.89
6,C116U G141A,-1.01
7,C105U U109G G133C,-1.81
8,C116U U135A,-0.565
9,C131G,-2.79
10,C131A,-1.77
11,C131U,1.18
12,A119C G143A,-0.422
13,C114U A137U,-4.05
14,C114G,-2.54
15,C114U,-1.75
16,C114A,-2.72
17,C114U C118G,-2.88
18,A115U G126A,-3.35
19,C116A U151C,-4.09
20,U135G U144G,-2.41
21,A122G G124A U127A,-3.53
22,U109G C116A,-2.26
23,U109G C116G,-0.501
24,A119U U144A,-0.171

row,Variant,polymerase ribozyme fitness (log ratio)
1,C131G G136U G141U G143U,≤ -4.2
2,A113U U146C,-1.49
3,C123U U145A,0.729
4,A106G U146A,-0.139
5,C116U A119U,-0.298
6,C116U A119G,-0.704
7,C129U,-0.0537
8,C129A,-2.46
9,C129G,-2.45
10,G141C,-0.0848
11,G141A,0.689
12,A107U A110U C114U,≤ -4.2
13,C132U U135A,-2.46
14,U135G G141U U146G,≤ -4.2
15,C116G A120U,0.554
16,A115G G141A,-0.426
17,C116U U144A,-0.259
18,G140A U144A,-3.68
19,C105U A142C,-0.229
20,A115U U134C,-1.19
21,C114G G140C G141U,≤ -4.2
22,A122U G141C,0.115
23,C116U C125G,1.23
24,C114U C125U,-3.33

row,Variant,polymerase ribozyme fitness (log ratio)
1,U109G C114G,-3.7
2,A113C C118A,≤ -4.2
3,C114U A147C,-2.83
4,C118G A119G,0.312
5,G126A A150G,-2.66
6,U139A U144A,-4.15
7,C118U G140U,-3.11
8,G124U U135C,-2.36
9,C108U A142C,-3.43
10,A115U,-1.48
11,A115G,-1
12,A115C,-0.641
13,C105U A120U G124A,0.877
14,G136U U144G,-3.29
15,C108U A147C,-3.44
16,U135A A147U,-0.75
17,A106G C118U,0.261
18,C123A G140A,-3.65
19,C114U U135C,-2.95
20,C116G A119U,0.403
21,U135A G136C,-4.14
22,U127A U134C G141C,-3.82
23,G117A C123A,0.34
